Data on 8 sequences can be found in the Immune Epitope Database (IEDB).

In assay [1] the target is HLA-C*08:02. In words: IEDB peptide-MHC binding, purified MHC/direct/fluorescence; filed as Kd, often an IC50 or EC50 that approximates it; ≥ and ≤ were set here for values at or beyond the usual limits of such assays. The following applies: source organism: human gammaherpesvirus 4.
The target of assay [2] is HLA-C*12:03. The description is as above.
Assay [3] addresses HLA-C*05:01. Described as above. The following applies: source organism: human gammaherpesvirus 4.
In assay [4] the target is HLA-B*15:02. The assay is described as follows: IEDB peptide-MHC binding, purified MHC/competitive/fluorescence; filed as Kd, often an IC50 or EC50 that approximates it; ≥ and ≤ were set here for values at or beyond the usual limits of such assays. To be noted: source organism: Shigella boydii CDC 3083-94.
In assay [5] the target is HLA-A*80:01. The assay is described as follows: IEDB peptide-MHC binding, purified MHC/direct/fluorescence; filed as Kd, often an IC50 or EC50 that approximates it; ≥ and ≤ were set here for values at or beyond the usual limits of such assays.
The target of assay [6] is HLA-A*26:01. In words: IEDB peptide-MHC binding, purified MHC/competitive/fluorescence; filed as Kd, often an IC50 or EC50 that approximates it; ≥ and ≤ were set here for values at or beyond the usual limits of such assays. To be noted: source organism: Orthohantavirus tulaense.
Assay [7] concerns the target HLA-B*39:01. The description is as above. The following applies: source organism: Orthohantavirus tulaense.
The target in assay [8] is HLA-B*51:01. Described as above. The following applies: source organism: Orthohantavirus tulaense.
The target of assay [9] is HLA-A*69:01. Described as above. The following applies: source organism: Orthohantavirus tulaense.
For assay [10], the target named is HLA-B*27:03. Described as above. The following applies: source organism: Orthohantavirus tulaense.
Assay [11] has as its target HLA-B*46:01. The assay is described as follows: IEDB peptide-MHC binding, purified MHC/direct/fluorescence; filed as Kd, often an IC50 or EC50 that approximates it; ≥ and ≤ were set here for values at or beyond the usual limits of such assays.
For assay [12], the target named is HLA-B*27:05. The assay is described as above. The following applies: source organism: Orthohantavirus negraense.
Assay [13] concerns the target HLA-A*02:11. The description is as above.
Assay [14] addresses HLA-A*02:01. Described as above.
Assay [15] has as its target HLA-A*03:01. Described as above.
For assay [16], the target named is HLA-A*01:01. The assay is described as above. The following applies: source organism: Orthohantavirus negraense.
Assay [17] addresses HLA-A*02:12. The assay is described as above.
Assay [18] concerns the target HLA-B*40:01. The assay is described as above. The following applies: source organism: Orthohantavirus negraense.
Assay [19] concerns the target HLA-A*29:02. The description is as above.
The target of assay [20] is HLA-B*48:01. The description is as above. The following applies: source organism: Orthohantavirus negraense.
In assay [21] the target is HLA-B*08:01. The assay is described as above. The following applies: source organism: Orthohantavirus negraense.
In assay [22] the target is HLA-B*15:01. The assay is described as above.
Assay [23] concerns the target HLA-A*23:01. The description is as above.
Assay [24] addresses HLA-B*07:02. The assay is described as above.
Assay [25] addresses HLA-A*24:03. The assay is described as above.
The target in assay [26] is HLA-A*68:02. The assay is described as above.
In assay [27] the target is HLA-B*18:01. The assay is described as above.
Assay [28] has as its target HLA-A*26:01. Described as above.
For assay [29], the target named is HLA-B*39:01. The description is as above.
The target in assay [30] is HLA-B*51:01. Described as above.
Assay [31] deals with HLA-A*02:03. The assay is described as above.
For assay [32], the target named is HLA-B*35:01. Described as above. The following applies: source organism: Coxiella burnetii Q321.
The target of assay [33] is HLA-A*69:01. Described as above. To be noted: source organism: Coxiella burnetii Q321.
Assay [34] concerns the target HLA-A*02:16. Described as above.
Assay [35] deals with HLA-A*02:19. The description is as above.
For assay [36], the target named is HLA-B*15:17. The assay is described as above.
Assay [37] has as its target HLA-B*57:01. The description is as above.
Assay [38] concerns the target HLA-B*27:03. The description is as above.
Where [39] appears, read: source organism: Orthohantavirus negraense.
[40] abbreviates: source organism: Orthohantavirus tulaense.
The mark [41] stands for this setting: source organism: Coxiella burnetii Q321.
[42] abbreviates: source organism: Cryptosporidium parvum Iowa II.
Setting [43] is: source organism: Toxoplasma gondii RH.

For orientation: Kd means the equilibrium constant for the complex coming apart. For the sequence YAAPQLFPV, the Kd is 0.069 µM in assay [1], 0.004 µM in assay [2] (source organism: human gammaherpesvirus 4) and 0.065 µM in assay [3].

Turning to FMAAFYRVM, the Kd is 0.0183 µM in assay [4] and not above 0.001 µM in [2] (source organism: Shigella boydii CDC 3083-94).

In turn, HSEEGSRAY came in with a dissociation constant Kd in [5] (source organism: Yellow fever virus) not below 20 µM.

As for MSRKLHRYI, the Kd in assay [6], in assay [7], in assay [8], in [9], in [10] and in assay [11] (setting [39]) was not below 20 µM in each case. Besides, the Kd in assay [12], in [13] (setting [40]), in assay [14] (setting [39]), in [15] (setting [40]), in [16] and in [17] (setting [40]) was not below 20 µM each time. The Kd was not below 20 µM in [18]; not below 20 µM in assay [19] (setting [39]); not below 20 µM in assay [20]; 0.441 µM in assay [2] (setting [40]); 4.71 µM in assay [21]; not below 20 µM in [22] (setting [39]). For the same sequence, the Kd in [23] (setting [40]), in [24] (setting [39]), in assay [25] (setting [40]), in assay [26] (setting [40]) and in assay [27] (setting [39]) was not below 20 µM in each case.

In the case of DGAEGINPY, the Kd in assay [11] (setting [41]), in assay [13] (setting [41]), in assay [14] (setting [41]), in [15] (setting [41]), in assay [28] (setting [41]) and in assay [29] (setting [41]) was not below 20 µM throughout. Also, the dissociation constant (Kd) in assay [30] (setting [41]) was not below 20 µM; in [31] (setting [41]), not below 20 µM; in assay [32], 0.267 µM; in [33], not below 20 µM; in assay [17] (setting [41]), not below 20 µM; in [34] (setting [41]), not below 20 µM. Further, the equilibrium dissociation constant (Kd) in assay [19] (setting [41]) is not below 20 µM; in assay [35] (setting [41]), not below 20 µM; in [22] (setting [41]) it was 11 µM; in assay [36] (setting [41]), not below 20 µM; in assay [23] (setting [41]), not below 20 µM; in assay [24] (setting [41]) it was 8.58 µM. The Kd in assay [37] (setting [41]), in [38] (setting [41]), in assay [25] (setting [41]), in assay [26] (setting [41]) and in assay [27] (setting [41]) was not below 20 µM each time.

MTGVMRGNY gave a Kd in assay [5] (source organism: Yellow fever virus strain Ghana/Asibi/1927) of 0.38 µM.

Take LPWFLDTTI: the Kd in assay [11] (setting [42]) is not below 20 µM; in assay [14] (setting [42]), not below 20 µM; in [15] (setting [42]) it was not below 20 µM; in [28] (setting [42]), not below 20 µM; in assay [29] (setting [42]) it was not below 20 µM; in assay [30] (setting [42]) it was 0.034 µM. Also, the Kd in assay [31] (setting [42]), in assay [17] (setting [42]), in assay [34] (setting [42]), in [35] (setting [42]), in assay [22] (setting [42]) and in [37] (setting [42]) was not below 20 µM throughout. In addition, the Kd in assay [38] (setting [42]) and in assay [27] (setting [42]) was not below 20 µM each time.

With LTMNLVSDI, the Kd in assay [11] (setting [43]) is not below 20 µM; in assay [15] (setting [43]), not below 20 µM; in assay [28] (setting [43]), not below 20 µM; in [29] (setting [43]), not below 20 µM; in [22] (setting [43]) it was not below 20 µM; in [36] (setting [43]), 0.003 µM. Also, the Kd in [37] (setting [43]), in assay [38] (setting [43]), in [25] (setting [43]) and in assay [27] (setting [43]) was not below 20 µM in each case.
